Laboratory results from article PMC5014727 (Structure (London, England : 1993), 2016).
Where “and” joins values, the source holds several entries; their conditions need not be identical. Equal values may be shown once. Blank lines part the entries; values can stand above or below the molecule they belong to.

B1: Ca2+-S100B dimer (ligand)
chain: MSELEKAMVALIDVFHQYSGREGDKHKLKKSELKELINNELSHFLEEIKEQEVVDKVMETLDNDGDGECDFQEFMAFVAMVTTACHEFFEHE
B2: chemically ligated sRAGE (extracellular soluble RAGE, VC1 ligated to C2) (domain or fragment, UniProt Q15109 23-342, looked up)
chain: AQNITARIGEPLVLKCKGAPKKPPQRLEWKLNTGRTEAWKVLSPQGGGPWDSVARVLPNGSLFLPAVGIQDEGIFRCQAMNRNGKETKSNYRVRVYQIPGKPEIVDSASELTAGVPNKVGTCVSEGSYPAGTLSWHLDGKPLVPNEKGVSVKEQTRRHPETGLFTLQSELMVTPARGGDPRPTFSCSFSPGLPRHRALRTAPIQPRVWEPGCSAEVQLVVEPEGGAVAPGGTVTLTCEVPAQPSPQIHWMKDGVPLPLPPSPVLILPEIGPQDQGTYSCVATHSSHGPQESRAVSISIIEPGEEGPTAGSVGGSGLGTLA

What was measured:
sRAGE ECD (Homo sapiens) = sRAGE ECD (Homo sapiens) (UniProt Q15109); conditions: cited from earlier work
[1] = target: full length RAGE fused with yellow fluorescence protein (human) (UniProt Q15109); test: FRET or BRET
[2] = target: B2; test: ELISA
15N NMR relaxation = target: the molecule itself; test: 15N NMR relaxation
cross-linking = target: the molecule itself; test: cross-linking

Molecule: sRAGE ECD (from UniProt Q15109)
- Kd (sRAGE ECD (Homo sapiens)): 100 µM

- FRET efficiency (with Ca2+-S100B) [1]: 10%
- FRET efficiency (without Ca2+-S100B) [1]: 8%
Molecule: ΔDAD-DIAPH1 fused with cyan fluorescent protein (from UniProt O60610 1-1272) (natural protein)

Molecule: B1
- Kd [2]: 0.49 ± 0.043 µM

Molecule: B2
- Kd (15N NMR relaxation): 120 ± 12 µM
- stoichiometry N (cross-linking): 2 and 3 and 4
